These results are taken from paper PMC11323563, “Multiple levels of transcriptional regulation control glycolate metabolism in Paracoccus denitrificans” (mBio, 2024).

The term Kd denotes a measure of binding affinity in units of concentration. Low values mean higher affinity, high ones lower affinity.

The target of series [1] is BhcR (Paracoccus denitrificans DSM 413) (UniProt A1B8Z4). In words: EMSA. Conditions: EMSA: 20 mM K phosphate pH 7.0, 1 mM DTT, 5 mM MgCl2, 50 mM KCl, 15 ug/mL BSA, 50 ug/mL herring sperm DNA, 5% glycerol, 0.1% Tween20, DNA 0.025 pM, 37 C …. Background: Mobility shift assays separate free from complexed probe on a gel.
The next series deals with T1, BhcR (Paracoccus denitrificans, UniProt A1B8Z4).
T1 construct: full length, pET16b His tag (cutting not mentioned), E. coli BL21 AI; Ni-NTA and size exclusion
In words: EMSA of Pbhc DNA-BhcR complex with effector. In kind it is binding. Conditions: 0.1-5 mM effector, pH 7.0, 37 °C.

In series [2] the target is T2, MGlcR (MBP-GlcR) (Paracoccus denitrificans DSM 413) (UniProt A1BAC0).
T2 sequence: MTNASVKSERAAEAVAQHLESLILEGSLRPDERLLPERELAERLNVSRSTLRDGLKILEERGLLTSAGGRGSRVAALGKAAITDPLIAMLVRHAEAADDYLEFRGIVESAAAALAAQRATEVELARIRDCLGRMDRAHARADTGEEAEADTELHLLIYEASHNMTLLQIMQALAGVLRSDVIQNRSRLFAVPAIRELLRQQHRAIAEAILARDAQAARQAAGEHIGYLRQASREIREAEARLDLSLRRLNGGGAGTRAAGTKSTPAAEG
In words: fluorescence polarization.

For series [3], the target named is T3, GlcR (Paracoccus denitrificans DSM 413) (UniProt A1BAC0).
T3 sequence: T2 sequence
In words: EMSA. Conditions: EMSA: 20 mM K phosphate pH 7.0, 1 mM DTT, 5 mM MgCl2, 50 mM KCl, 15 ug/mL BSA, 50 ug/mL herring sperm DNA, 5% glycerol, 0.1% Tween20, DNA 0.025 pM, 37 C ….

The target of the next series is T4, GlcR (Paracoccus denitrificans, UniProt A1BAC0).
T4 construct: gene Pden_4400; full length, pET16b His tag (cutting not mentioned), E. coli BL21 AI; Ni-NTA and size exclusion
T4 sequence (A1BAC0 1-269): T2 sequence
In words: EMSA of Pglc DNA-GlcR complex with effector. Conditions: 0.5-2 mM effector; pH 7.0, 37 °C; effector decreasing DNA binding.

The next series deals with T5, MGlcR (Paracoccus denitrificans, UniProt A1BAC0).
T5 construct: gene Pden_4400; Ni-NTA purified
T5 sequence (A1BAC0 1-269): T2 sequence
In words: fluorescence polarization, effector titration of 6FAM-Pglc-MGlcR complex. Conditions: 0.1-100 mM effector, 750 nM MGlcR, 10 nM Pglc; pH 7.5, room temperature; effector decreasing DNA binding. (In general: Fluorescence polarisation rises when a labelled molecule tumbles more slowly, as on binding a larger partner.)

The mark [4] stands for this setting: effector increasing DNA binding.
[5] abbreviates: EMSA: 20 mM K phosphate pH 7.0, 1 mM DTT, 5 mM MgCl2, 50 mM KCl, 15 ug/mL BSA, 50 ug/mL herring sperm DNA, 5% glycerol, 0.1% Tween20, DNA 0.025 pM, 37 C ….

T1 sequence (A1B8Z4 whole entry): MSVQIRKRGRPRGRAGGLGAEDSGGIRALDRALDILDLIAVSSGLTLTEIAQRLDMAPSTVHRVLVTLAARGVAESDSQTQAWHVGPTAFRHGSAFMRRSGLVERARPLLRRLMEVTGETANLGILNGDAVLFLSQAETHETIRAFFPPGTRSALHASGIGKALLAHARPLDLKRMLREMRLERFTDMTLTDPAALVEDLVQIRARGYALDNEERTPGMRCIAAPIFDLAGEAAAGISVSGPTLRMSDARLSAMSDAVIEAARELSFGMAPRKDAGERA
BhcR (Paracoccus denitrificans DSM 413), sequence (A1B8Z4 whole entry): as above

Turning to “GGAATGAAGATCGGGTTCTGGCTGGTCATGGCAATTCCTCCTGCGCTTGTGGACCAAGCTACGTTTTGCTGTCCATTGATGCAATTTTTCTGAAAAATATTTCGCAATCGCGGAAAAATGACCTAAAGTGTCGTGGAATCAGATCGTTGCTCTTTTCCAAAGCCAAAGAGTGATTTTCAACAAACTCAGAAAGTTGTCGAAAGGAAAAATTGAATGTCGGTTCAAATCCGCAAAAGGG (double strand) [Pbhc 238 bp]”, the binding entry in series [1] is listed as “binds”.

With `O=CC(=O)O` [glyoxylate], on BhcR (effector decreasing DNA binding), the “EMSA of Pbhc DNA-BhcR complex with effector” value (“EMSA of Pbhc DNA-BhcR complex” for short) is recorded as “the interaction of BhcR with Pbhc was negatively affected by increasing concentrations of glyoxylate”. As to `CC(=O)C(=O)O` [pyruvate], the “EMSA of Pbhc DNA-BhcR complex” value at BhcR (setting [4]) is given as “the DNA-binding interaction was positively affected by the presence of pyruvate or oxalate”. As to “GCTCTCCTCCCTTGGTCGAACGGCAGGCCCGTGTCCTGCCCTGCATTCTTGGTATAATTTTCAGACCACATTAGTCAATCGGTATTTTTCTGGACCGACACGCCCGTCCTGTGCTTACATGGCAGGGATCCGACAACCGCATGAGCGCCC (double strand) [[6FAM]-Pglc]”, in series [2] (setting [5]), the Kd was 225 nM and the binding entry is reported as “binds”. Molecule [6FAM]-Pglc gave a Kd in series [2] (10 nM DNA) of 225 nM. As to “CAAGCTCTCCTCCCTTGGTCGAACGGCAGGCCCGTGTCCTGCCCTGCATTCTTGGTATAATTTTCAGACCACATTAGTCAATCGGTATTTTTCTGGACCGACACGCCCGTCCTGTGCTTACATGGCAGGGATCCGACAACCGCATGAGCGCCCATG (double strand) [Pglc 156 bp]”, the binding entry in series [3] is listed as “binds”.

As for `O=C(O)C(=O)O` [oxalate], at BhcR (setting [4]), the “EMSA of Pbhc DNA-BhcR complex” value is listed as “the DNA-binding interaction was positively affected by the presence of pyruvate or oxalate”.

For the molecule `O=C(O)CO` [glycolate], the “EMSA of Pglc DNA-GlcR complex with effector” value at GlcR is listed as “DNA binding was decreased in the presence of glycolate”. Moreover, at MGlcR, the “fluorescence polarization, effector titration of 6FAM-Pglc-MGlcR complex” value is reported as “Titration of the Pglc-MGlcR complex with increasing concentrations of glycolate demonstrated a notable decrease in binding”.
